Laboratory results published in patent publication US20220267436A1 (NANJING GENSCRIPT BIOTECH, published 2022).

B1: bispecific antibody LAG3-E-HC (bispecific antibody, human IgG4 S228P, kappa)
heavy: not shown
light: EIVLTQSPATLSLSPGERATLSCRASENVGTYISWYQQKPGQAPRLLIYGASNRYTGIPARFSGSGSGTDFTLTISSLEPEDFAVYYCGESYGHLYTFGGGTKVEIKRTVAAPSVFIFPPSDEQLKSGTASVVCLLNNFYPREAKVQWKVDNALQSGNSQESVTEQDSKDSTYSLSSTLTLSKADYEKHKVYACEVTHQGLSSPVTKSFNRGEC
notes: Two identical fused chains and two identical natural chains; also called H1 + L0
B2: bispecific antibody LAG3-G15-HN (bispecific antibody, human IgG4 S228P, kappa)
heavy: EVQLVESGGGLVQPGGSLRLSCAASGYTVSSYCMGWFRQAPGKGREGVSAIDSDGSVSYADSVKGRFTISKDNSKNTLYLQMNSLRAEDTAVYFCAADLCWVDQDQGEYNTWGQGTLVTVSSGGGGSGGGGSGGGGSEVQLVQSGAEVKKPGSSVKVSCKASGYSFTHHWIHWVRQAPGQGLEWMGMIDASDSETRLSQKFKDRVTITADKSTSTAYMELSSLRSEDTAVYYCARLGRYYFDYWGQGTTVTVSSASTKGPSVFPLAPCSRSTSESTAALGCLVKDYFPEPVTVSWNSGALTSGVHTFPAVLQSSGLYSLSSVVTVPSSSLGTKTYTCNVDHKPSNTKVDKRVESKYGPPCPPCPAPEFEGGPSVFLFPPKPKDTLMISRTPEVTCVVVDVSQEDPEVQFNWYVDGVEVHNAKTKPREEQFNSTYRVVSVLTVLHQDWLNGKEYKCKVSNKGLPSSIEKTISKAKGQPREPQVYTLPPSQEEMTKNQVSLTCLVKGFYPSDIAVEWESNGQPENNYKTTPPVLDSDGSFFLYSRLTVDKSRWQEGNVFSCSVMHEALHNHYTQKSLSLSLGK
light: B1 light
notes: Two identical fused chains and two identical natural chains; also called H6 + L0
B3: bispecific antibody LAG3-G9-HC (bispecific antibody, human IgG4 S228P, kappa)
heavy: not shown
light: B1 light
notes: Two identical fused chains and two identical natural chains; also called LAGS-G9-HC; H3 + L0
B4: bispecific antibody LAG3-G15-HC (bispecific antibody, human IgG4 S228P, kappa)
heavy: not shown
light: B1 light
notes: Two identical fused chains and two identical natural chains; also called H5 + L0
B5: bispecific antibody LAG3-E-HN (bispecific antibody, human IgG4 S228P, kappa)
heavy: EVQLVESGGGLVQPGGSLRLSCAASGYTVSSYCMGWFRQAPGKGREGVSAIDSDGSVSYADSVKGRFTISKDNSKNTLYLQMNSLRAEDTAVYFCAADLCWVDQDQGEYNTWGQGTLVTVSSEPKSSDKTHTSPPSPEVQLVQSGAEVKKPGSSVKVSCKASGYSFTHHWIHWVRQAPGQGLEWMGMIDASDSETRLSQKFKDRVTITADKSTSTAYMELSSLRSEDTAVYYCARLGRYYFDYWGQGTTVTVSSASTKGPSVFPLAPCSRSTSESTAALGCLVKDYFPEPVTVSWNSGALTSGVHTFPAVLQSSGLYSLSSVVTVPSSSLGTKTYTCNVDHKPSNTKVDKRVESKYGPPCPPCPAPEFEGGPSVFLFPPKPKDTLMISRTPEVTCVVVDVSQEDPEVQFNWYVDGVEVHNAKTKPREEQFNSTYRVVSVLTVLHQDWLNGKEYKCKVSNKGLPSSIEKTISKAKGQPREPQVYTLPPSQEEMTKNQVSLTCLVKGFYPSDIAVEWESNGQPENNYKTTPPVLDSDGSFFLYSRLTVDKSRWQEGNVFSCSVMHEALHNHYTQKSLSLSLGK
light: B1 light
notes: Two identical fused chains and two identical natural chains; also called H2 + L0
B6: bispecific antibody LAG3-G9-HN (bispecific antibody, human IgG4 S228P, kappa)
heavy: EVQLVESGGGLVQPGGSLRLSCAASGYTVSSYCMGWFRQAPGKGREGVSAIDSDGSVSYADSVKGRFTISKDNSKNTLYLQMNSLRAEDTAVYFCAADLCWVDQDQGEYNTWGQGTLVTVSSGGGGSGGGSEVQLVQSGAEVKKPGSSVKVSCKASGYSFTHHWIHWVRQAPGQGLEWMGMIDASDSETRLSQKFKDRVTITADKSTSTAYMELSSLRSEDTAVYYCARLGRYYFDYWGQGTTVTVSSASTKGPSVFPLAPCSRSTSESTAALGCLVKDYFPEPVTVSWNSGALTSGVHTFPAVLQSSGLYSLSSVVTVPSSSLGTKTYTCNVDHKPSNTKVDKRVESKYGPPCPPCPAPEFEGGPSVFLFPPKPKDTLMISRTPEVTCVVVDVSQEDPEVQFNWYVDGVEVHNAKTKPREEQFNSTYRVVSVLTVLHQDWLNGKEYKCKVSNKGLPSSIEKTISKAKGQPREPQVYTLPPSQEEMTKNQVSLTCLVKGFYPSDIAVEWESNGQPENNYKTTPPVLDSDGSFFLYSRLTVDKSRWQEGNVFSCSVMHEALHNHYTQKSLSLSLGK
light: B1 light
notes: Two identical fused chains and two identical natural chains; also called H4 + L0
B7: bispecific antibody LAG3-G15-LC (bispecific antibody, human IgG4 S228P, kappa)
heavy: not shown
light: EIVLTQSPATLSLSPGERATLSCRASENVGTYISWYQQKPGQAPRLLIYGASNRYTGIPARFSGSGSGTDFTLTISSLEPEDFAVYYCGESYGHLYTFGGGTKVEIKRTVAAPSVFIFPPSDEQLKSGTASVVCLLNNFYPREAKVQWKVDNALQSGNSQESVTEQDSKDSTYSLSSTLTLSKADYEKHKVYACEVTHQGLSSPVTKSFNRGECGGGGSGGGGSGGGGSEVQLVESGGGLVQPGGSLRLSCAASGYTVSSYCMGWFRQAPGKGREGVSAIDSDGSVSYADSVKGRFTISKDNSKNTLYLQMNSLRAEDTAVYFCAADLCWVDQDQGEYNTWGQGTLVTVSS
notes: Two identical fused chains and two identical natural chains; also called L5 + H0
B8: bispecific antibody LAG3-G9-LN (bispecific antibody, human IgG4 S228P, kappa)
heavy: not shown
light: EVQLVESGGGLVQPGGSLRLSCAASGYTVSSYCMGWFRQAPGKGREGVSAIDSDGSVSYADSVKGRFTISKDNSKNTLYLQMNSLRAEDTAVYFCAADLCWVDQDQGEYNTWGQGTLVTVSSGGGGSGGGSEIVLTQSPATLSLSPGERATLSCRASENVGTYISWYQQKPGQAPRLLIYGASNRYTGIPARFSGSGSGTDFTLTISSLEPEDFAVYYCGESYGHLYTFGGGTKVEIKRTVAAPSVFIFPPSDEQLKSGTASVVCLLNNFYPREAKVQWKVDNALQSGNSQESVTEQDSKDSTYSLSSTLTLSKADYEKHKVYACEVTHQGLSSPVTKSFNRGEC
notes: Two identical fused chains and two identical natural chains; also called L4 + H0
B9: bispecific antibody LAG3-G15-LN (bispecific antibody, human IgG4 S228P, kappa)
heavy: not shown
light: EVQLVESGGGLVQPGGSLRLSCAASGYTVSSYCMGWFRQAPGKGREGVSAIDSDGSVSYADSVKGRFTISKDNSKNTLYLQMNSLRAEDTAVYFCAADLCWVDQDQGEYNTWGQGTLVTVSSGGGGSGGGGSGGGGSEIVLTQSPATLSLSPGERATLSCRASENVGTYISWYQQKPGQAPRLLIYGASNRYTGIPARFSGSGSGTDFTLTISSLEPEDFAVYYCGESYGHLYTFGGGTKVEIKRTVAAPSVFIFPPSDEQLKSGTASVVCLLNNFYPREAKVQWKVDNALQSGNSQESVTEQDSKDSTYSLSSTLTLSKADYEKHKVYACEVTHQGLSSPVTKSFNRGEC
notes: Two identical fused chains and two identical natural chains; also called L6 + H0
B10: bispecific antibody LAG3-G9-LC (bispecific antibody, human IgG4 S228P, kappa)
heavy: not shown
light: EIVLTQSPATLSLSPGERATLSCRASENVGTYISWYQQKPGQAPRLLIYGASNRYTGIPARFSGSGSGTDFTLTISSLEPEDFAVYYCGESYGHLYTFGGGTKVEIKRTVAAPSVFIFPPSDEQLKSGTASVVCLLNNFYPREAKVQWKVDNALQSGNSQESVTEQDSKDSTYSLSSTLTLSKADYEKHKVYACEVTHQGLSSPVTKSFNRGECGGGGSGGGSEVQLVESGGGLVQPGGSLRLSCAASGYTVSSYCMGWFRQAPGKGREGVSAIDSDGSVSYADSVKGRFTISKDNSKNTLYLQMNSLRAEDTAVYFCAADLCWVDQDQGEYNTWGQGTLVTVSS
notes: Two identical fused chains and two identical natural chains; also called L3 + H0
B11: bispecific antibody LAG3-E-LN (bispecific antibody, human IgG4 S228P, kappa)
heavy: not shown
light: EVQLVESGGGLVQPGGSLRLSCAASGYTVSSYCMGWFRQAPGKGREGVSAIDSDGSVSYADSVKGRFTISKDNSKNTLYLQMNSLRAEDTAVYFCAADLCWVDQDQGEYNTWGQGTLVTVSSEPKSSDKTHTSPPSPEIVLTQSPATLSLSPGERATLSCRASENVGTYISWYQQKPGQAPRLLIYGASNRYTGIPARFSGSGSGTDFTLTISSLEPEDFAVYYCGESYGHLYTFGGGTKVEIKRTVAAPSVFIFPPSDEQLKSGTASVVCLLNNFYPREAKVQWKVDNALQSGNSQESVTEQDSKDSTYSLSSTLTLSKADYEKHKVYACEVTHQGLSSPVTKSFNRGEC
notes: Two identical fused chains and two identical natural chains; also called L2 + H0
B12: bispecific antibody LAG3-E-LC (bispecific antibody, human IgG4 S228P, kappa)
heavy: not shown
light: EIVLTQSPATLSLSPGERATLSCRASENVGTYISWYQQKPGQAPRLLIYGASNRYTGIPARFSGSGSGTDFTLTISSLEPEDFAVYYCGESYGHLYTFGGGTKVEIKRTVAAPSVFIFPPSDEQLKSGTASVVCLLNNFYPREAKVQWKVDNALQSGNSQESVTEQDSKDSTYSLSSTLTLSKADYEKHKVYACEVTHQGLSSPVTKSFNRGECEPKSSDKTHTSPPSPEVQLVESGGGLVQPGGSLRLSCAASGYTVSSYCMGWFRQAPGKGREGVSAIDSDGSVSYADSVKGRFTISKDNSKNTLYLQMNSLRAEDTAVYFCAADLCWVDQDQGEYNTWGQGTLVTVSS
notes: Two identical fused chains and two identical natural chains; also called L1 + H0
B13: anti-CD47 monoclonal antibody (mAb) (antibody, human IgG4 S228P, kappa, V domains shown)
VH: EVQLVQSGAEVKKPGSSVKVSCKASGYSFTHHWIHWVRQAPGQGLEWMGMIDASDSETRLSQKFKDRVTITADKSTSTAYMELSSLRSEDTAVYYCARLGRYYFDYWGQGTTVTVSS
VL: EIVLTQSPATLSLSPGERATLSCRASENVGTYISWYQQKPGQAPRLLIYGASNRYTGIPARFSGSGSGTDFTLTISSLEPEDFAVYYCGESYGHLYTFGGGTKVEIKR
notes: Full-length antibody composed of heavy chain H0 and light chain L0; also called anti-CD47 mAb; anti-CD47 antibody control

Columns and labels:
human LAG-3 = target: T1, human LAG-3 (human, UniProt P18627 23-525); assay: flow cytometry on CHO-K1 cells expressing human LAG-3
T1 construct: whole, on cells; also called LAG-3 antigen
T1 sequence (looked up): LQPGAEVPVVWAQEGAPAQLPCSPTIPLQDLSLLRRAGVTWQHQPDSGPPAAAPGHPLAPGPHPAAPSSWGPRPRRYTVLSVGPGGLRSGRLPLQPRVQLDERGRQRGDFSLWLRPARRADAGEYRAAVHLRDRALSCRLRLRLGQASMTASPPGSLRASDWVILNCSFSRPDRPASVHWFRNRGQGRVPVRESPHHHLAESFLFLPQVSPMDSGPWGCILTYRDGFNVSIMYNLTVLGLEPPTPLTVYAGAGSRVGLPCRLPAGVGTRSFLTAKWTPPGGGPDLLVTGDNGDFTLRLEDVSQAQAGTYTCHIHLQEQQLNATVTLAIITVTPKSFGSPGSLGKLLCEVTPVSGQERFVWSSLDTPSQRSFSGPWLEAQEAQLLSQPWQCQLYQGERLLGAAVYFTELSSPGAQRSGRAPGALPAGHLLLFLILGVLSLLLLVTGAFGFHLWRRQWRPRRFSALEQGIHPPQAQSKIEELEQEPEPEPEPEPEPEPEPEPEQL
Description: (§1) For the constructed series of bispecific antibodies, the affinity of these samples with antigens was measured by using a flow cytometer. […] Then, an antibody-antigen binding curve was generated based on the geometric mean, raw data of four parameters was plotted by using the […] Prism V6.02 software, and a best fitted value program was compiled to analyze EC₅₀.

human CD47 = target: T2, human CD47 (human, UniProt Q08722 19-323); assay: flow cytometry on CHO-K1 cells expressing human CD47
T2 construct: whole, on cells; also called CD47 antigen; integrin associated protein
T2 sequence (Q08722 19-323): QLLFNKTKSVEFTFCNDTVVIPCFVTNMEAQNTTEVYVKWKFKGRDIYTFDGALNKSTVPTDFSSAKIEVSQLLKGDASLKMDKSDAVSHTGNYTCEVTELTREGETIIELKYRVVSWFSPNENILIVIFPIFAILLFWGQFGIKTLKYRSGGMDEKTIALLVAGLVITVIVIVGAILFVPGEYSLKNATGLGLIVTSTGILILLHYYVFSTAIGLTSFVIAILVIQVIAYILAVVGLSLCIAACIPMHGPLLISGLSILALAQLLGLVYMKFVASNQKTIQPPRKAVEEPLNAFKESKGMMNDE
Description: as §1

Row | Binder | binding result (human LAG-3) | binding result (human CD47)
1 | B1 | binds | 
2 | B2 | binds | 
3 | B3 | binds | 
4 | B4 | binds | 
5 | B5 | binds | 
6 | B6 | binds | 
7 | B7 | binds | binds
8 | B8 | binds | 
9 | B9 | binds | 
10 | B10 | binds | binds
11 | B11 | binds | 
12 | B12 | binds | 
13 | B13 |  | binds
